Experimental data: patent publication US20250340636A1 (Memorial Sloan Kettering, published 2025)
Residue numbers refer to the chain shown, from its start.

B1: 13G04 (antibody, V domains shown)
VH: QVQLVQSGAEVKKPGASVKVSCKASGYTFIGYYLHWVRQAPGQGLEWMGWINPNSGGTNSAQKFQGRVTMTRDTSISTTYMDLSRLRSDDTAVYYCARGGLERRDAFDIWGQGTLVTVSS
VL: DIQMTQSPSTLSASVGDRVTITCRASQSISNWLAWYQQKPGKAPNLLIYKASSLESGVPSRFSGSGSGTEFTLTISSLQPDDFATYYCQQYDTYRTFGQGTKVEIK
notes: mAb from AlivaMab mice, purified from hybridoma supernatant
B2: 13F04 (antibody, V domains shown)
VH: QVQLQQPGAELVKPGASVKLSCKASGYIFISYWMHWVKQRPGQGLEWIGEINPRNGRTNYNEKFKSKATLTVDKSSSTAYMQLTSLTSEDSAVYYCARGGDYGGSFDYWGQGTTLTVSS
VL: DIVLTQSPASLAVSLGQRATISCRASESVDSYGNSFMHWYQQKPGQPPKLLIYRASNLESGIPARFSGSGSRTDFTLTVNPVEADDVATYYCQQSNEDPWTFGGGTKLEIK
notes: mAb from wild-type mice, purified from the supernatant of a hybridoma clone; also called L1CAM mAb 13F04
B3: 143G03 (antibody, V domains shown)
VH: QVQLRQSGAELVRPGTSVKMSCKASGYTFTNYYIHWVKQRPGQGLEWIGKIGPGSGSPYYNGMFKDKATLTVDTSSSTAYMQLSSLTSEDSAVYFCARWLLPFDYWGQGTTLTVSS
VL: QIVLSQSPGILSASPGEKVTMTCRASSSVNYMHWYQQKSGSSPKPWIFATSILASGVPPRFSGSGSGTSYSLTISSVEAEDTATYYCQQFSSDPLTFGAGTKLELK
notes: mAb from wild-type mice; also called 143G03 WT; murine 143G03 mAb
B4: 04B06 (antibody, V domains shown)
VH: QVQLQESGPGLVKPSETLSLTCTVSGGSINSYYWSWIRQPAGKGLEWIGRFYTSGSTNHNPSLKSRVTMSVDTSKNQFSLKLTSVTAADTAVYYCAREWSGSFYGGDAFDIWGQGTMVTVSS
VL: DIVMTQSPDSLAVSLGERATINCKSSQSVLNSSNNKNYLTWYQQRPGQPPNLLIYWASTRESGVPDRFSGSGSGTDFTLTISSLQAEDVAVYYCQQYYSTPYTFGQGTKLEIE
notes: mAb from AlivaMab mice (human immunoglobulin repertoire), purified from hybridoma supernatant
B5: 14A10 (antibody, V domains shown)
VH: EVQMVESGGGLVQPGGSLRLSCAAPGFIFSSYNMNWVRQAPGKGLEWVSYISSSSSTTYYADSVKGRFTISRDNAKNSLYLQMNSLRDEDTAVYYCASLYSGYDYYYYYGMDVWGQGTTVTVSS
VL: DIVMTQTPLSSPVSLGQPASISCRSSQSLVHSDGNTYLSWLQQRPGQPPRVLIYKISKRFSGVPDRFSGSGAGTDFTLKISRVEAEDVGVYYCMQATQFPFTFGPGTKVDIK
notes: mAb from AlivaMab mice
B6: 15G02 (antibody, V domains shown)
VH: EVQLVESGGGLVQPGGSLRLSCGVSGFTFSHYWMNWVRQAPGKGLEWVANIMQDGSEKYYVDSVKGRFTISRDNAKNSLYLQMNSLRVEDTAVYYCARDRGVTTLFDYWGQGILVTVSS
VL: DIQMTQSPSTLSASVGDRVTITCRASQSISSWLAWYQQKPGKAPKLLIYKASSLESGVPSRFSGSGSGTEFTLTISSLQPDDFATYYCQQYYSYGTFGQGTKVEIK
notes: as for B1
B7: Ch143G03-GF (antibody, V domains shown)
VH: B3 VH
VL: B3 VL
notes: read as chimeric 143G03 (murine variable regions of 143G03, human constant regions). '-GF' is not explained
B8: hu14A10 (antibody, V domains shown)
VH: B5 VH
VL: B5 VL
B9: 76H12 Fab construct 1 (chimeric; parental mouse 76H12 V-regions) (Fab, V domains shown)
VH: QVQLQQPGSDLVRPGTSVKLSCKASGYTFTSYWMHWVKQRPGQGLEWIGNVYPGSGSTKYDEKFKTKATLTVDTSSNTAYMELSSLTSEDSAVYYCTRPGNYEGFAYWGQGTLVTVSA
VL: B2 VL with D1N, N34S, R54L, I62V, V79I, N80D, V87A, S95N
notes: also called Fab 1; chimeric 76H12 Fab
B10: 76H12 Fab construct 2 (humanized) (Fab, V domains shown)
VH: QVQLVQSGAEVKKPGASVKVSCKASGYTFTSYWMHWVRQAPGQGLEWMGNVYPGSGSTKYAQKFQGRVTMTRDTSTSTVYMELSSLRSEDTAVYYCARPGNYEGFAYWGQGTLVTVSS
VL: NIQLTQSPSSLSASVGDRVTITCRASESVDSYGSSFMHWYQQKPGKPPKLLIYLASNLESGVPSRFSGSGSGTDFTLTISSLQPEDFATYYCQQNNEDPWTFGQGTKLEIK
notes: also called Fab 2
B11: TDI-Y-004 ADC with PNU-159682 and a cleavable Glu-Val-Cit linker (antibody, human IgG1, kappa, V domains shown)
VH: QVQLVQSGAEVKKPGSSVKVSCKASGYTFTNYYIHWVRQAPGQGLEWMGKIGPGSGSPYYQGMFKDRVTITADESTSTAYMELSSLRSEDTAVYYCARWLLPFDYWGQGTLVTVSS
VL: EIVLTQSPGTLSLSPGERATLSCRASSSVNYMHWYQQKPGQAPRLLIYATSILASGIPDRFSGSGSGTDYTLTISRLEPEDFAVYYCQQFSSDPLTFGGGTKVEIKR
modifications: ThioBridge linker-payload on the interchain disulfide cysteine; ThioBridge-Glu[-Glu(OH)-Val-Cit-PAB-DMEA-PNU159682]-PEG(24) rebridging the reduced interchain disulfide cysteines; average DAR about 4
B12: TDI-Y-005 ADC with PNU-159682 and a cleavable Glu-Val-Cit linker (antibody, human IgG1, kappa, V domains shown)
VH: B5 VH
VL: DIVMTQTPLSSPVSLGQPASISCRSSQSLVHSDGNTYLSWLQQRPGQPPRVLIYKISKRFSGVPDRFSGSGAGTDFTLKISRVEAEDVGVYYCMQATQFPFTFGPGTKVDIKR
modifications: ThioBridge linker-payload on the interchain disulfide cysteine; ThioBridge-Glu[-Glu(OH)-Val-Cit-PAB-DMEA-PNU159682]-PEG(24) rebridging the reduced interchain disulfide cysteines; average DAR about 4

Molecular target: T1, human L1CAM on cells (human, UniProt P32004 20-1257)
T1 construct: Overexpressed on stably transfected HEK293T cells or endogenous on MCF-7 and MDA-MB-231 cells; also called HEK293T-hL1CAM
T1 sequence (P32004 20-1257): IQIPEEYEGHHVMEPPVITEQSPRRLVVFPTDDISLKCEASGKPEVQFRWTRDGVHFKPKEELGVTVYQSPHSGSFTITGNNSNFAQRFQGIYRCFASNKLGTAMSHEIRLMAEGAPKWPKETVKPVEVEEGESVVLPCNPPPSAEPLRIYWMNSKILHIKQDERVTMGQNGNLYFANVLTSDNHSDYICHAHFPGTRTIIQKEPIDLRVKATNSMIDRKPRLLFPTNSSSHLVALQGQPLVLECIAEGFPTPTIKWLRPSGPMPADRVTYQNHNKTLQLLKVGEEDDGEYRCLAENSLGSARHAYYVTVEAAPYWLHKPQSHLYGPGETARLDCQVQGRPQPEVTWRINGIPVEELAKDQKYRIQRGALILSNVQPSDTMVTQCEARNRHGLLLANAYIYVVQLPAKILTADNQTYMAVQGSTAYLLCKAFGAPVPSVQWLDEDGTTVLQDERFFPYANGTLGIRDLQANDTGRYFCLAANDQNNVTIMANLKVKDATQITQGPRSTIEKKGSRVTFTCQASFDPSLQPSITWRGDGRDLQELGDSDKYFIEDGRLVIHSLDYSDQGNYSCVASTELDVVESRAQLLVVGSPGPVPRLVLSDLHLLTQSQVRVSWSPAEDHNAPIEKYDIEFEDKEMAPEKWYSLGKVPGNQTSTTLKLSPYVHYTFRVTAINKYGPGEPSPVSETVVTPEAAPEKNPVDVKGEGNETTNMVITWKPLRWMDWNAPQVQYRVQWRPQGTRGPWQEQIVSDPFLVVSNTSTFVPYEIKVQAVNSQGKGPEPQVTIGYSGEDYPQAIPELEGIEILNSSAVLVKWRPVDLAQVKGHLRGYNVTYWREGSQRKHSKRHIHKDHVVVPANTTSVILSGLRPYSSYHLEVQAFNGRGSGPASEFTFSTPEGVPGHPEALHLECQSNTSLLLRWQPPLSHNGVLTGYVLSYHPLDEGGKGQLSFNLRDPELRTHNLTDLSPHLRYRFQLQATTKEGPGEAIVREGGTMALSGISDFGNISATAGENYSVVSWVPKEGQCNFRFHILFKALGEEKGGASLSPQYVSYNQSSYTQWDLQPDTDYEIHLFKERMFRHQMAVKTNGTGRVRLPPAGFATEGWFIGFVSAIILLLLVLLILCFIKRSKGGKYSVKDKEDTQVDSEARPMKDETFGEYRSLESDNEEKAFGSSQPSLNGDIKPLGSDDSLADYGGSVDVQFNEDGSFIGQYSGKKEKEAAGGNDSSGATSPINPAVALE
Experiment: flow cytometry, MDA-MB-231 cells
Protocol: (§1) Binding Analysis. […] Dissociation constants (KD) for binding to soluble human and cynomolgus monkey L1CAM-His were determined using biolayer interferometry (BLI). In addition, EC50 values for binding to cell-bound L1CAM were established by flow cytometry using HEK293T/FT cells overexpressing human or mouse L1CAM, MCF-7 cells, and MDA-MB-231 cells. In addition, the epitope regions of the mAbs were determined by BLI interaction analysis with L1CAM subdomains (Ig and FN) expressed individually, and by a BLI competition experiment to identify epitope bins.

For B1, which EC50 is on record?
The EC50 was 6.7 nM.

For B2, which EC50 is on record?
The EC50 was 1.7 nM.

Which EC50 does the source give for B3 here?
Its EC50 is 0.9 nM.

B4 was tested. Which EC50 did it give?
Its EC50 is 9.6 nM.

Which EC50 does the source give for B5 here?
The EC50 was 8.9 nM.

With B6 as the binder, how does the EC50 read?
Its EC50 is 0.98 nM.

Molecular target: T1, human L1CAM on cells
Experiment: flow cytometry, HEK293T cells overexpressing human L1CAM
Protocol: as §1

How did the EC50 turn out when B1 was run?
Its EC50 is 4.8 nM.

Which EC50 does the source give for B2 here?
The EC50 was 4 nM.

For B3, which EC50 is on record?
Its EC50 is 1 nM.

With B4 as the binder, how does the EC50 read?
The EC50 was 2.3 nM.

Which EC50 does the source give for B5 here?
The EC50 was 3.5 nM.

How did the EC50 turn out when B6 was run?
Its EC50 is 2.6 nM.

Molecular target: T2, extracellular domain of human L1CAM (isoform 1) fused to a poly-histidine tag via its carboxy terminus (human, UniProt P32004 20-1120)
T2 construct: Bought (Creative Biomart); also called L1CAM-His; huL1CAM protein
T2 sequence (P32004 20-1120): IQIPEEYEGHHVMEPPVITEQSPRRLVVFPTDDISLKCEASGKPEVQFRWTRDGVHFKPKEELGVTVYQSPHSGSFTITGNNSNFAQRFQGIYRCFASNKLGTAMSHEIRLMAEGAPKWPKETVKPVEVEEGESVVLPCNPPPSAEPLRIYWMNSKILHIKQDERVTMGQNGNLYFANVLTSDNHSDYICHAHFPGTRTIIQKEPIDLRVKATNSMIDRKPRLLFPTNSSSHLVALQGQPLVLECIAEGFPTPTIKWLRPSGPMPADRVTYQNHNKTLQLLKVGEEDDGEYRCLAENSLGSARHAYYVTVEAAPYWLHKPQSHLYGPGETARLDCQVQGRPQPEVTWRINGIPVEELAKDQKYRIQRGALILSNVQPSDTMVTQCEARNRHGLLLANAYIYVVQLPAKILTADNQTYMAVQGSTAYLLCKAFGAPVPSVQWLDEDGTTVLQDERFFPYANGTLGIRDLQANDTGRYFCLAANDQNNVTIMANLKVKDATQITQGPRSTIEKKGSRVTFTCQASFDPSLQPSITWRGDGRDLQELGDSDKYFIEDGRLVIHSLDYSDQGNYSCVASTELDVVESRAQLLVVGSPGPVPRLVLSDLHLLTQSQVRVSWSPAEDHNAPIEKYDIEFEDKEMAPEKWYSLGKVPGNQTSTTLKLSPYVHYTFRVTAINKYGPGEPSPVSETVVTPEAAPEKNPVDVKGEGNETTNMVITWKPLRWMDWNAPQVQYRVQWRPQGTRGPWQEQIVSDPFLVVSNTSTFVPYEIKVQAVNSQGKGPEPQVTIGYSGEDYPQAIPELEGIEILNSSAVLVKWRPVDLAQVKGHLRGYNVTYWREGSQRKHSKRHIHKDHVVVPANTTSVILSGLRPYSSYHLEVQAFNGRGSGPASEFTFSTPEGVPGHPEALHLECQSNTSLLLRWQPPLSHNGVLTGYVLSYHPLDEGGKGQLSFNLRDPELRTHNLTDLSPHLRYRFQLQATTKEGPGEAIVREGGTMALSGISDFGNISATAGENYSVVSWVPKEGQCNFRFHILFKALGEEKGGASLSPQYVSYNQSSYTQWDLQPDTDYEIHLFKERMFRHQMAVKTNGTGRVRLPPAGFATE
Experiment: BLI, soluble human L1CAM-His
Protocol: as §1

For B2, which Kd is on record?
The Kd was 1.13 nM.

How did the Kd turn out when B3 was run?
Its Kd is 0.12 nM.

For B4, which Kd is on record?
Its Kd is 0.07 nM.

With B5 as the binder, how does the Kd read?
The Kd was 1.2 nM.

With B6 as the binder, how does the Kd read?
The Kd was 0.58 nM.

Molecular target: T1, human L1CAM on cells
Experiment: flow cytometry, MCF-7 cells
Protocol: as §1

Which EC50 does the source give for B1 here?
The EC50 was 4.8 nM.

How did the EC50 turn out when B2 was run?
Its EC50 is 1.2 nM.

For B3, which EC50 is on record?
Its EC50 is 0.35 nM.

Which EC50 does the source give for B4 here?
Its EC50 is 1.1 nM.

Which EC50 does the source give for B5 here?
The EC50 was 5.3 nM.

B6 was tested. Which EC50 did it give?
Its EC50 is 1 nM.

Molecular target: T3, soluble cynomolgus monkey L1CAM, His-tagged, monomeric (cynomolgus monkey, UniProt A0A2K5URB5 20-1120)
T3 construct: also called cyL1CAM protein; cynomolgus L1CAM-His
Experiment: BLI, soluble cynomolgus L1CAM-His
Protocol: as §1

With B1 as the binder, how does the Kd read?
The Kd was 3.2 nM.

Which Kd does the source give for B2 here?
Its Kd is 19.8 nM.

B3 was tested. Which Kd did it give?
Its Kd is 0.34 nM.

With B4 as the binder, how does the Kd read?
Its Kd is 0.6 nM.

For B5, which Kd is on record?
The Kd was 3.2 nM.

How did the Kd turn out when B6 was run?
The Kd was 0.93 nM.

Molecular target: T1, human L1CAM on cells
Experiment: FACS on cells expressing L1CAM (293FT or MDA-MB-231; the table does not say which)
Protocol: Briefly, CDR-grafted heavy and light chains were expressed in various combinations and the antigen-binding properties were evaluated.

B3 was tested. Which EC50 did it give?
The EC50 was 0.85 nM.

B7 was tested. Which EC50 did it give?
Its EC50 is 0.727 nM.

How did the EC50 turn out when B8 was run?
Its EC50 is 5.93 nM.

Molecular target: T4, mouse L1CAM on transiently transfected HEK293FT cells (mouse, UniProt P11627 20-1260)
T4 construct: whole, on cells; also called mouse L1CAM on cells
T4 sequence (P11627 20-1260): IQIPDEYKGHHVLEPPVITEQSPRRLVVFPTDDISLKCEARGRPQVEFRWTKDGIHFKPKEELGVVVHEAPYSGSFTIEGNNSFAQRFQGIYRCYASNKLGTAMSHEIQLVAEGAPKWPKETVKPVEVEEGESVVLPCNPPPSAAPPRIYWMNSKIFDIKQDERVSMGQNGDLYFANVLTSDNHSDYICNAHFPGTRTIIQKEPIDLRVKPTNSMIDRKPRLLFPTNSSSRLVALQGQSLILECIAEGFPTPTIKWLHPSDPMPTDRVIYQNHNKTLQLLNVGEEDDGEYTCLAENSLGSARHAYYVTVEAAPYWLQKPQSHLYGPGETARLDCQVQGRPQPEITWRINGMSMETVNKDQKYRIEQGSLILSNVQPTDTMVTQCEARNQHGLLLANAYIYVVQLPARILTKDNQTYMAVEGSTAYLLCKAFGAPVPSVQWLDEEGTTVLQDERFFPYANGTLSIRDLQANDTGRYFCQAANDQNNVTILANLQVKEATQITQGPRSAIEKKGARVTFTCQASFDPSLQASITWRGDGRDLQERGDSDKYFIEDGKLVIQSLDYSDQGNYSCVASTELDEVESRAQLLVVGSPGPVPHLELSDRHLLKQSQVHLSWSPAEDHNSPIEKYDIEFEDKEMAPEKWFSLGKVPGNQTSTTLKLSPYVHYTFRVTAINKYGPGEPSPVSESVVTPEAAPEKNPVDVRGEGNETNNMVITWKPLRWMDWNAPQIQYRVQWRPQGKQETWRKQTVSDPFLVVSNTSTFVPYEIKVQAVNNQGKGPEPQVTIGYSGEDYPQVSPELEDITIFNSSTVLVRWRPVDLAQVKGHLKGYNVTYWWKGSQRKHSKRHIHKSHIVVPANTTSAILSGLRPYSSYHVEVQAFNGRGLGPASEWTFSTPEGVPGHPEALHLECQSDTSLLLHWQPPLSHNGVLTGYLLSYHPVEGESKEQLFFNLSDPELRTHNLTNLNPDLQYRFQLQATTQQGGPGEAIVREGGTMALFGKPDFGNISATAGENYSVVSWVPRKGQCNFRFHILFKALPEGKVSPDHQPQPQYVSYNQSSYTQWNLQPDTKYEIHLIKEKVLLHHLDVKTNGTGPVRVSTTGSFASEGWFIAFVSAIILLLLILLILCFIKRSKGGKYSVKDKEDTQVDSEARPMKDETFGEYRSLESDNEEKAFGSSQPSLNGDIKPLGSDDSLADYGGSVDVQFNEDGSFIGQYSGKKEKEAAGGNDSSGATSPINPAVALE
Experiment: flow cytometry, HEK293FT cells transfected with mouse L1CAM

Does B1 bind?
Result: no binding

Does B2 bind?
Result: no binding

Does B3 bind?
Result: no binding

Does B4 bind?
Result: no binding

For B5, which EC50 is on record?
The EC50 was 5.6 nM.

Does B6 bind?
Result: no binding

Molecular target: T5, recombinant L1CAM-Fc fusion protein (human, UniProt P32004 20-1120)
T5 construct: also called recombinant L1CAM protein; not shown: human Fc fused to the carboxy terminus
T5 sequence (P32004 20-1120): as the sequence (P32004 20-1120) above
Experiment: BLI, L1CAM-Fc on AHC biosensors, Fab 3-200 nM, 1:1 fit
Protocol: Here, recombinant L1CAM-Fc fusion protein was immobilized onto anti-Human IgG Fc Capture (AHC) biosensors and binding of Fabs was measured kinetically over a 3-200 nM concentration range. Kinetic data were fitted to a 1:1 binding model to compute association (kₒₙ) and dissociation (koff) rate constants, in addition to equilibrium dissociation constants (KD) as shown in Table 87.

B9 was tested. Which Kd did it give?
Its Kd is 39.6 nM.

And the koff?
Its koff is 0.0232 s⁻¹.

What about the kon of the same binder?
Its kon is 586000 M⁻¹ s⁻¹.

Which results are given for B10?
Kd: 88.8 nM; koff: 0.0706 s⁻¹; kon: 797000 M⁻¹ s⁻¹

Molecular target: T1, human L1CAM on cells
Experiment: cell-based or functional assay

Which “EC50 of cytotoxicity, HEK293T-hL1CAM cells (CellTiterGlo, 96 hours)” value does the source give for B11 here?
The value was 0.008 nM.

What about the “EC50 of cytotoxicity, MCF-7 cells (CellTiterGlo, 96 hours)” value of the same binder?
Its value is 0.03 nM.

And the “EC50 of cytotoxicity, MDA-MB-231 cells (CellTiterGlo, 96 hours)” value?
The value was 3.3 nM.

How did the “EC50 of cytotoxicity, HEK293T-hL1CAM cells (CellTiterGlo, 96 hours)” value turn out when B12 was run?
Its value is 0.03 nM.

And the “EC50 of cytotoxicity, MCF-7 cells (CellTiterGlo, 96 hours)” value?
The value was 0.4 nM.

And the “EC50 of cytotoxicity, MDA-MB-231 cells (CellTiterGlo, 96 hours)” value?
The value was 12.4 nM.

Molecular target: T2, extracellular domain of human L1CAM …
Experiment: BLI, soluble human L1CAM-His; off-rate below detection limit

For B1, which Kd is on record?
Its Kd is less than 0.02 nM.
